Target: batCoV-SHC014 S-2P (spike ectodomain) (Bat SARS-like coronavirus RsSHC014, UniProt U5WLK5, stabilised)
Assay: ELISA

B1: DH1047 (cross-neutralizing RBD antibody), IgG (antibody, V domains shown)
VH: QVQLVQSGAEVKKPGASVQVSCQASANTFTNHYIHWVRQAPGQGLEWMGIIYPTGGNTIYAQGFQGRVTMTRDTSLNTIYLELSSLRSEDTAVYYCARDVRVDDSWSGYDLLSGGTYFDYWGQGTLVTVSS
VL: not shown
binding result: binds
